# Measured values as given in article PMC6892922.
# B1: Ehg1-Cub-LV [S. cerevisiae] / NubG-Hip1 [S. cerevisiae] (parent)
# chain 1: MRSFVTNNDIPVGYVTPKFPSLYWPINNSKYNTAFLYYISDIWKFSLYWTLIFNGAFYVTAGVYASLTHRKKAGSVWIFVMYVLYGGVQGLTTGTVMGFLIGAIYRSGLFSMSTWVPLCCAVVQILFDVVLSYSMVGSVM
# chain 2: MPRNPLKKEYWADVVDGFKPATSPAFENEKESTTFVTELTSKTDSAFPLSSKDSPGINQTTNDITSSDRFRRNEDTEQEDINNTNLSKDLSVRHLLTLAVGGAIGTGLYVNTGAALSTGGPASLVIDWVIISTCLFTVINSLGELSAAFPVVGGFNVYSMRFIEPSFAFAVNLNYLAQWLVLLPLELVAASITIKYWNDKINSDAWVAIFYATIALANMLDVKSFGETEFVLSMIKILSIIGFTILGIVLSCGGGPHGGYIGGKYWHDPGAFVGHSSGTQFKGLCSVFVTAAFSYSGIEMTAVSAAESKNPRETIPKAAKRTFWLITASYVTILTLIGCLVPSNDPRLLNGSSSVDAASSPLVIAIENGGIKGLPSLMNAIILIAVVSVANSAVYACSRCMVAMAHIGNLPKFLNRVDKRGRPMNAILLTLFFGLLSFVAASDKQAEVFTWLSALSGLSTIFCWMAINLSHIRFRQAMKVQERSLDELPFISQTGVKGSWYGFIVLFLVLIASFWTSLFPLGGSGASAESFFEGYLSFPILIVCYVGHKLYTRNWTLMVKLEDMDLDTGRKQVDLTLRREEMRIERETLAKRSFVTRFLHFWC
# B2: Ehg1-Cub-LV [S. cerevisiae] / NubG-Bap2 [S. cerevisiae] (parent)
# chain 1: B1 chain 1
# chain 2: MLSSEDFGSSGKKETSPDSISIRSFSAGNNFQSSSSEKTYSKQKSGSDKLIHRFADSFKRAEGSTTRTKQINENTSDLEDGVESITSDSKLKKSMKSRHVVMMSLGTGIGTGLLVANAKGLHYGGPAALIIGYILVSFVTYFMIQAAGEMAVTYPTLPANFNAYSSIFISKSFGFATVWLYCFQWLTVLPLELITASMTIQFWNDKINPDIYILIFYVFLVFIHFFGVKAYGETEFIFNCCKILMIAGFIILSIVINCGGAGNDGYIGATYWHNPGAFAGDTSIGRFKNVCYILVTAYFSFGGMELFALSVQEQSNPRKSTPVAAKRSIYRIVVIYLLTMILIGFNVPYNDDQLMGAGGSATHASPYVLAASIHGVKIVPHIINAVILISVVSVANSSLYAGPRLICSLAQQGYAPKFLDYVDREGRPLRALIVCCVFGVIAFVAASSKEEIVFTWLAAIAGLSELFTWTSIMLSHLRFRQAMKVQGRSLDELGYKATTGIWGSIYGVFFNILVFVAQFWVALAPLGNGGKCDAESFFQNYLAFPIWLAFYFGYMVYNRDFTLLNPLDKIDLDFHRRIYDPELMRQEDEENKEKLRNMSLMRKAYHFWC
# B3: Ehg1-Cub-LV [S. cerevisiae] / NubG-Fur4 [S. cerevisiae] (parent)
# chain 1: B1 chain 1
# chain 2: MPDNLSLHLSGSSKRLNSRQLMESSNETFAPNNVDLEKEYKSSQSNITTEVYEASSFEEKVSSEKPQYSSFWKKIYYEYVVVDKSILGVSILDSFMYNQDLKPVEKERRVWSWYNYCYFWLAECFNINTWQIAATGLQLGLNWWQCWITIWIGYGFVGAFVVLASRVGSAYHLSFPISSRASFGIFFSLWPVINRVVMAIVWYSVQAYIAATPVSLMLKSIFGKDLQDKIPDHFGSPNATTYEFMCFFIFWAASLPFLLVPPHKIRHLFTVKAVLVPFASFGFLIWAIRRAHGRIALGSLTDVQPHGSAFSWAFLRSLMGCMANFSTMVINAPDFSRFSKNPNSALWSQLVCIPFLFSITCLIGILVTAAGYEIYGINYWSPLDVLEKFLQTTYNKGTRAGVFLISFVFAVAQLGTNISANSLSCGTDMSAIFPKFINIKRGSLFCAAMALCICPWNLMATSSKFTMALSAYAIFLSSIAGVVCSDYFVVRRGYIKLTHIYSHQKGSFYMYGNRFGINWRALAAYLCGVAPCLPGFIAEVGAPAIKVSDGAMKLYYLSYWVGYGLSFSSYTALCYFFPVPGCPVNNIIKDKGWFQRWANVDDFEEEWKDTIERDDLVDDNISVYEHEHEKTFI
# Variants of: B1
# Test: split-ubiquitin yeast two-hybrid (growth of strain NMY51)
# Settings: with NubG-Hip1 [S. cerevisiae]; sub-panel Ehg1–Hip1; SC–His medium; 24 h starting at OD600 0.1; NubG-vector control est. 0.48; parent: 1.8; read off a plot
row,response [OD600],Variant
1,1.5,chain 1 F19A
2,1.3,chain 1 P17A P20A

# Same assay, conditions: with NubG-Hip1 [S. cerevisiae]; sub-panel Ehg1–Hip1; SC–His–Ade medium; 24 h starting at OD600 0.1; NubG-vector control est. 0.20; parent: 0.73; read off a plot
row,response [OD600],Variant
1,0.75,chain 1 F19A
2,0.5,chain 1 P17A P20A

# Variants of: B2
# Test: as above
# Settings: with NubG-Bap2 [S. cerevisiae]; sub-panel Ehg1–Bap2; SC–His medium; 24 h starting at OD600 0.1; NubG-vector control est. 0.46; parent: 1.3; read off a plot
row,response [OD600],Variant
1,0.5,chain 1 P17A P20A
2,0.72,chain 1 F19A

# Same assay, conditions: with NubG-Bap2 [S. cerevisiae]; sub-panel Ehg1–Bap2; SC–His–Ade medium; 24 h starting at OD600 0.1; NubG-vector control est. 0.17; parent: 0.45; read off a plot
row,response [OD600],Variant
1,0.17,chain 1 P17A P20A
2,0.27,chain 1 F19A

# Variants of: B3
# Test: as above
# Settings: with NubG-Fur4 [S. cerevisiae]; sub-panel Ehg1–Fur4; SC–His medium; 24 h starting at OD600 0.1; NubG-vector control est. 0.40; parent: 1.8; read off a plot
row,response [OD600],Variant
1,0.45,chain 1 P17A P20A
2,0.65,chain 1 F19A

# Same assay, conditions: with NubG-Fur4 [S. cerevisiae]; sub-panel Ehg1–Fur4; SC–His–Ade medium; 24 h starting at OD600 0.1; NubG-vector control est. 0.16; parent: 0.95; read off a plot
row,response [OD600],Variant
1,0.17,chain 1 P17A P20A
2,0.22,chain 1 F19A
